Read-outs that look alike come from different tables or passages of the source.
Key:
human PD1-ECD = target: T1, human PD1-ECD (human, UniProt Q15116 25-170); test: SPR Biacore T200, Ab captured on anti-human Fc IgG, hu PD1-ECD in solution, 25 C
T1 construct: SPR analyte; also called hu PD1-ECD

[1] = target: T2, PD1-SNAP (on transiently transfected HEK293 cells) (human, SNAP-tag labelled with SNAP-Lumi4-Tb); test: cell-based TR-FRET (Tag-lite) on HEK293 cells co-transfected with PD1-SNAP (Lumi4-Tb) and Tim3-CLIP (Clip-Red), 1 h at 4 C; signal needs both receptors bound at once by one antibody; mean +/- SD, n=3
T2 construct: also called SNAP-tagged PD1

[2] = target: T3, Tim3-CLIP (on transiently transfected HEK293 cells) (human, CLIP-tag labelled with Clip-Red); test: as above
T3 construct: The plasmid encodes residues 1-202 including the signal peptide; also called CLIP-tagged TIM3

[3] = target: T4, full-length human PD1 on cells (CHO-K1 stably transfected with plasmid 15311_hPD1-fl_pUC_Neo) (human, UniProt Q15116 25-288); test: cell-based or functional assay
[4] = target: T5, biotinylated PD1-ECD-AviHis (human, UniProt Q15116 25-170, biotinylated, site not stated); test: ELISA on coated biotinylated PD1-ECD-AviHis
T5 construct: also called huPD1; hu PD1

monomeric human Tim3-ECD = target: T6, monomeric human Tim3-ECD (human, UniProt Q8TDQ0 22-202); test: SPR Biacore T200, Ab captured on anti-human Fab IgG, hu Tim3-ECD in solution, 25 C
T6 construct: SPR analyte; also called huTim3; hu Tim3-ECD

[5] = target: T4, full-length human PD1 on cells (CHO-K1 …); test: cell-based or functional assay; remark: listed apart in the source
[6] = target: T7, biotinylated TIM3-ECD-AviHis (human, UniProt Q8TDQ0 22-202, biotinylated, site not stated); test: ELISA on coated biotinylated TIM3-ECD-AviHis
T7 construct: also called huTIM3; Hu TIM3

[7] = target: T3, Tim3-CLIP (on transiently transfected …); test: cell-based TR-FRET (Tag-lite) on HEK293 cells co-transfected with PD1-SNAP (Lumi4-Tb) and Tim3-CLIP (Clip-Red), 1 h at 4 C; signal needs both receptors bound at once by one antibody; mean +/- SD, n=3; remark: listed apart in the source
[8] = target: T8, full-length human Tim3 on cells (CHO-K1 stably transfected with plasmid 15312_hTIM3-fl_pUC_Neo) (human, UniProt Q8TDQ0 22-301); test: cell-based or functional assay
[9] = target: T8, full-length human Tim3 on cells (CHO-K1 …); test: cell ELISA on CHO-K1 cells with full-length human Tim3

Row | Binder | Kd (monomeric human Tim3-ECD) | IFN-gamma release in MLR at 1 µg/ml antibody, % of rec hu IL-2 (20 EU/ml) = 100% [8] | IFN-gamma release in MLR at 10 µg/ml antibody, % of rec hu IL-2 (20 EU/ml) = 100% [8] | IFN-gamma release in MLR at 40 µg/ml antibody, % of rec hu IL-2 (20 EU/ml) = 100% [8] | EC50 [9] | other results
1 | 1+1 PD1TIM3_0389 (based on chimeric PD1-0103 / Tim3-0028) (bispecific antibody, human IgG1, kappa, L234A L235A, 1+1 CrossMAb Vh-VL: HC1/LC1 form the crossed PD1 arm, HC2/LC2 the TIM3 arm; knobs into holes; also called PD1TIM3-0389 (0357); Bispec AB 0389 (1+1)) heavy 1: not shown heavy 2: EVQLQQSVAELVRPGASVKLSCTASGFNIKTTYMHWVKQRPEQGLEWIGRIDPADDNTKYAPKFQGKATITADTSSNTAYLQLSSLTSEDAAIYYCVRDFGYVAWFAYWGQGTLVTFSAASTKGPSVFPLAPSSKSTSGGTAALGCLVEDYFPEPVTVSWNSGALTSGVHTFPAVLQSSGLYSLSSVVTVPSSSLGTQTYICNVNHKPSNTKVDEKVEPKSCDKTHTCPPCPAPEAAGGPSVFLFPPKPKDTLMISRTPEVTCVVVDVSHEDPEVKFNWYVDGVEVHNAKTKPREEQYNSTYRVVSVLTVLHQDWLNGKEYKCKVSNKALGAPIEKTISKAKGQPREPQVCTLPPSRDELTKNQVSLSCAVKGFYPSDIAVEWESNGQPENNYKTTPPVLDSDGSFFLVSKLTVDKSRWQQGNVFSCSVMHEALHNRFTQKSLSLSPGK light 1: EVILVESGGGLVKPGGSLKLSCAASGFSFSSYTMSWVRQTPEKRLDWVATISGGGRDIYYPDSVKGRFTISRDNAKNTLYLEMSSLMSEDTALYYCVLLTGRVYFALDSWGQGTSVTVSSASVAAPSVFIFPPSDEQLKSGTASVVCLLNNFYPREAKVQWKVDNALQSGNSQESVTEQDSKDSTYSLSSTLTLSKADYEKHKVYACEVTHQGLSSPVTKSFNRGEC light 2: NIVMTPTPKFLPVSSGDRVTMTCRASQSVDNYVAWYQQKPGQSPKLLIYYASNRYIGVPDRFTGSGSGTDFTFTISSVQVEDLAVYFCQQHYSSPYTFGSGTKLEIKRTVAAPSVFIFPPSDRKLKSGTASVVCLLNNFYPREAKVQWKVDNALQSGNSQESVTEQDSKDSTYSLSSTLTLSKADYEKHKVYACEVTHQGLSSPVTKSFNRGEC | 245 nM |  |  |  |  | Kd (human PD1-ECD): 1.3 nM; binding result [1]: binds; binding result [2]: binds; EC50 of IFN-gamma secretion in MLR, donors D2 + D6 [3]: 2.8 nM; EC50 [4]: 0.13 nM; EC50 of IFN-gamma secretion in MLR, donors D1 + D3 [5]: 2 nM; EC50 of IFN-gamma secretion in MLR, donors D2 + D4 [5]: 1.9 nM
2 | 2+2 PD1TIM3_0359 (chimeric PD1-0103 / Tim3-0018) (bispecific antibody, human IgG1, kappa, L234A L235A, 2+2 CrossMAb: TIM3 IgG with a crossed PD1 Fab fused by (G4S)4 to the C-terminus of each heavy chain; also called PD1TIM3-0359 (2 + 2)) heavy: not shown light 1: QIVLTQSPAIMSASPGQKVTITCSASSSVNYTQWYQQKLGSSPKLWIYDAFKLAPGVPARFSGSGTGTSYSLTISSMEAEDAASYFCHQWSSYPWTFGGGTKLEIKRTVAAPSVFIFPPSDRKLKSGTASVVCLLNNFYPREAKVQWKVDNALQSGNSQESVTEQDSKDSTYSLSSTLTLSKADYEKHKVYACEVTHQGLSSPVTKSFNRGEC light 2: EVILVESGGGLVKPGGSLKLSCAASGFSFSSYTMSWVRQTPEKRLDWVATISGGGRDIYYPDSVKGRFTISRDNAKNTLYLEMSSLMSEDTALYYCVLLTGRVYFALDSWGQGTSVTVSSASVAAPSVFIFPPSDEQLKSGTASVVCLLNNFYPREAKVQWKVDNALQSGNSQESVTEQDSKDSTYSLSSTLTLSKADYEKHKVYACEVTHQGLSSPVTKSFNRGEC | 2.3 nM |  |  |  |  | Kd (human PD1-ECD): 1.8 nM; binding result [1]: binds; binding result [2]: binds; EC50 [4]: 0.09 nM; EC50 [6]: 0.11 nM
3 | 1+1 PD1TIM3_0476 (based on humanized PD1-0103_0312 / Tim3-0438) (bispecific antibody, human IgG1, kappa, L234A L235A, 1+1 CrossMAb Vh-VL: HC1/LC1 form the crossed PD1 arm, HC2/LC2 the TIM3 arm; knobs into holes) heavy 1: not shown heavy 2: EVQLVESGGGLVQPGGSLRLSCAASGFNIKTTYMHWVRQAPGKGLEWVGRIDPADDNTKYAPKFQGKATISADTSKNTAYLQMNSLRAEDTAVYYCVRDFGYVAWFAYWGQGTLVTVSSASTKGPSVFPLAPSSKSTSGGTAALGCLVEDYFPEPVTVSWNSGALTSGVHTFPAVLQSSGLYSLSSVVTVPSSSLGTQTYICNVNHKPSNTKVDEKVEPKSCDKTHTCPPCPAPEAAGGPSVFLFPPKPKDTLMISRTPEVTCVVVDVSHEDPEVKFNWYVDGVEVHNAKTKPREEQYNSTYRVVSVLTVLHQDWLNGKEYKCKVSNKALGAPIEKTISKAKGQPREPQVCTLPPSRDELTKNQVSLSCAVKGFYPSDIAVEWESNGQPENNYKTTPPVLDSDGSFFLVSKLTVDKSRWQQGNVFSCSVMHEALHNHYTQKSLSLSPGK light 1: EVQLLESGGGLVQPGGSLRLSCAASGFSFSSYTMSWVRQAPGKGLEWVATISGGGRDIYYPDSVKGRFTISRDNSKNTLYLQMNSLRAEDTAVYYCVLLTGRVYFALDSWGQGTLVTVSSASVAAPSVFIFPPSDEQLKSGTASVVCLLNNFYPREAKVQWKVDNALQSGNSQESVTEQDSKDSTYSLSSTLTLSKADYEKHKVYACEVTHQGLSSPVTKSFNRGEC light 2: DIVMTQSPLSLPVTPGEPASISCRASQSVDNYVAWYLQKPGQSPQLLIYYASNRYIGVPDRFSGSGSGTDFTLKISRVEAEDVGVYYCQQHYSSPYTFGQGTKVEIKRTVAAPSVFIFPPSDRKLKSGTASVVCLLNNFYPREAKVQWKVDNALQSGNSQESVTEQDSKDSTYSLSSTLTLSKADYEKHKVYACEVTHQGLSSPVTKSFNRGEC | 332 nM |  |  |  |  | binding result [7]: binds
4 | 1+1 PD1TIM3_0477 (based on humanized PD1-0103_0312 / Tim3-0434) (bispecific antibody, human IgG1, kappa, L234A L235A, 1+1 CrossMAb Vh-VL: HC1/LC1 form the crossed PD1 arm, HC2/LC2 the TIM3 arm; knobs into holes; also called PD1TIM3_477) heavy 1: not shown heavy 2: QITLKESGPTLVKPTQTLTLTCTFSGFSLSTSGMSVGWIRQPPGKGLEWLAHIWLNDDVFFNPALKSRLTITKDTSKNQVVLTMTNMDPVDTATYYCVRANGYLYALDYWGQGTLVTVSSASTKGPSVFPLAPSSKSTSGGTAALGCLVEDYFPEPVTVSWNSGALTSGVHTFPAVLQSSGLYSLSSVVTVPSSSLGTQTYICNVNHKPSNTKVDEKVEPKSCDKTHTCPPCPAPEAAGGPSVFLFPPKPKDTLMISRTPEVTCVVVDVSHEDPEVKFNWYVDGVEVHNAKTKPREEQYNSTYRVVSVLTVLHQDWLNGKEYKCKVSNKALGAPIEKTISKAKGQPREPQVCTLPPSRDELTKNQVSLSCAVKGFYPSDIAVEWESNGQPENNYKTTPPVLDSDGSFFLVSKLTVDKSRWQQGNVFSCSVMHEALHNHYTQKSLSLSPGK light 1: EVQLLESGGGLVQPGGSLRLSCAASGFSFSSYTMSWVRQAPGKGLEWVATISGGGRDIYYPDSVKGRFTISRDNSKNTLYLQMNSLRAEDTAVYYCVLLTGRVYFALDSWGQGTLVTVSSASVAAPSVFIFPPSDEQLKSGTASVVCLLNNFYPREAKVQWKVDNALQSGNSQESVTEQDSKDSTYSLSSTLTLSKADYEKHKVYACEVTHQGLSSPVTKSFNRGEC light 2: DIQLTQSPSFLSASVGDRVTITCSASSSVSYTQWYQQKPGKAPKLWIYDAFKLAPGVPSRFSGSGSGTEFTLTISSLQPEDFATYFCHQWSSYPWTFGQGTKLEIKRTVAAPSVFIFPPSDRKLKSGTASVVCLLNNFYPREAKVQWKVDNALQSGNSQESVTEQDSKDSTYSLSSTLTLSKADYEKHKVYACEVTHQGLSSPVTKSFNRGEC | 12 nM |  |  |  |  | binding result [7]: binds
5 | Tim3_0026 (antibody, V domains shown) VH: QIQLVQSGPELKKPGETVKISCKASGYTFTDYSMHWVKQAPGRGLKWMGYINTETYEPTFGADFKGRFAFSLDTSATTAYLQINSLKTEDTATFFCGGGGYPAYWGQGTVVIVSA VL: DVLMTQTPLSLPVSLGDQASISCRSSRTILHSSGNTYLEWYLQKPGQSPKLLIYKVSNRFSGVPDRFSGSGSGTDFTLNISRVEAEDLGVYYCFQDSHVPFTFGTGTKLEIK |  | 18% | 16% | 25% | 0.069 µg/mL | 
6 | Tim3_0033 (antibody, V domains shown) VH: QGQMHQSGAELVKPGSSVKLSCKTSGFTFSSSFISWLKQKPGQSLEWIAWIYAATGSTSYNQKFTNKAQLTVDTSSSAAYMQFSSLTTEDSAIYYCARHAGYPHYYAMDYWGQGTSVTVSS VL: DIQMTQSPASLSASVGETVTITCRASENIFSNLAWYQQKQGKSPQLLVYSATNLGDGVPSRFSGSGSGTQFSLKINSLQPEDFGNYYCQHFYKIPFTFGTGTKLEIK |  | 0% | 30% | 35% | 3.71 µg/mL | 
7 | Tim3_0021 (antibody, V domains shown) VH: QVQLQQSGPQLVRPGASVQISCKASGYSFTSYLLHWLKQRPGQGLEWIGMIDPSDSETRLNQKFKDKATLTVDKSSSTAYMQLSSPTSEDSAVYYCARDGYYAWYYFDCWGQGTTLTVSS VL: DIVLTQSPATLSVTPGDRVSLSCRASQSIGNNLHWYQQKSHESPRLLIKYASHSISGIPSKFSGTGSGTDFTLSFNSVETEDFGMYFCQQSNSWPLTFGAGTKLELK |  | 101% | 108% | 112% | 0.073 µg/mL | 

Source: patent US20190322748A1 (Hoffmann-La Roche, published 2019)
